The source of these data is the MegaScale stability set (Tsuboyama et al. 2023).

The labels stand for the following.
B1: r11_951_TrROS_Hall (parent)
chain: KKKYVIKVYFEDTGKEVEIEAESKEEALEAAKRLAEELGLKIKKVEIYP

This data set covers variants of B1. The experiment in a line: folding stability dG (cDNA display proteolysis); higher = more stable. The conditions noted are these: PBS, room temperature.
KKKYVIKVYFHDTGKEVEIEAESKEEALEAAKRLAEELGLKIKKVEIYP [E11H]: the “folding stability dG” value was determined as 4.83 kcal/mol.

In the case of KKKYVIKVYFIDTGKEVEIEAESKEEALEAAKRLAEELGLKIKKVEIYP [E11I], the “folding stability dG” value came out at 4.86 kcal/mol. For KKKYVIKVYFADTGKEVEIEAESKEEALEAAKRLAEELGLKIKKVEIYP [E11A] the value was 4.58 kcal/mol. For KKKYVIKVYFCDTGKEVEIEAESKEEALEAAKRLAEELGLKIKKVEIYP [E11C] the value was 4.63 kcal/mol; for KKKYVIKVYFGDTGKEVEIEAESKEEALEAAKRLAEELGLKIKKVEIYP [E11G], 4.49 kcal/mol. The figure for KKKYVIKVYFFDTGKEVEIEAESKEEALEAAKRLAEELGLKIKKVEIYP [E11F] is 4.94 kcal/mol; for KKKYVIKVYFDDTGKEVEIEAESKEEALEAAKRLAEELGLKIKKVEIYP [E11D] it is 4.5 kcal/mol; for KKKYVIKVTFEDTGKEVEIEAESKEEALEAAKRLAEELGLKIKKVEIYP [Y9T] it is 4.22 kcal/mol. As for KKKYVIKVIFEDTGKEVEIEAESKEEALEAAKRLAEELGLKIKKVEIYP [Y9I], the “folding stability dG” value came to 4.35 kcal/mol. With KKKYVIKVSFEDTGKEVEIEAESKEEALEAAKRLAEELGLKIKKVEIYP [Y9S], the “folding stability dG” value is 4.16 kcal/mol.

In the case of KKKYVIKVPFEDTGKEVEIEAESKEEALEAAKRLAEELGLKIKKVEIYP [Y9P], the “folding stability dG” value came out at 1.42 kcal/mol. For KKKYVIKVRFEDTGKEVEIEAESKEEALEAAKRLAEELGLKIKKVEIYP [Y9R] the value was 4.14 kcal/mol; for KKKYVIKVMFEDTGKEVEIEAESKEEALEAAKRLAEELGLKIKKVEIYP [Y9M], 4.4 kcal/mol. On to KKKYVIKVFFEDTGKEVEIEAESKEEALEAAKRLAEELGLKIKKVEIYP [Y9F], for which the “folding stability dG” value was 4.25 kcal/mol. The figure for KKKYVIKVHFEDTGKEVEIEAESKEEALEAAKRLAEELGLKIKKVEIYP [Y9H] is 4.26 kcal/mol; for KKKYVIKVLFEDTGKEVEIEAESKEEALEAAKRLAEELGLKIKKVEIYP [Y9L] it is 4.26 kcal/mol; for KKKYVIKVCFEDTGKEVEIEAESKEEALEAAKRLAEELGLKIKKVEIYP [Y9C] it is 3.95 kcal/mol. For KKKYVIKVNFEDTGKEVEIEAESKEEALEAAKRLAEELGLKIKKVEIYP [Y9N] the value was 3.87 kcal/mol; for KKKYVIKVQFEDTGKEVEIEAESKEEALEAAKRLAEELGLKIKKVEIYP [Y9Q], 4.09 kcal/mol; for KKKYVIKVDFEDTGKEVEIEAESKEEALEAAKRLAEELGLKIKKVEIYP [Y9D], 3.41 kcal/mol.

With KKKYVIKVEFEDTGKEVEIEAESKEEALEAAKRLAEELGLKIKKVEIYP [Y9E], the “folding stability dG” value was determined as 4.28 kcal/mol. With KKKYVIKVGFEDTGKEVEIEAESKEEALEAAKRLAEELGLKIKKVEIYP [Y9G], the “folding stability dG” value worked out at 3.74 kcal/mol. The figure for KKKYVIKVAFEDTGKEVEIEAESKEEALEAAKRLAEELGLKIKKVEIYP [Y9A] is 3.91 kcal/mol; for KKKYVIKVKFEDTGKEVEIEAESKEEALEAAKRLAEELGLKIKKVEIYP [Y9K] it is 3.98 kcal/mol. For KKKYVIKVWFEDTGKEVEIEAESKEEALEAAKRLAEELGLKIKKVEIYP [Y9W], the “folding stability dG” value amounted to 4.86 kcal/mol. The figure for KKKYVIKVVFEDTGKEVEIEAESKEEALEAAKRLAEELGLKIKKVEIYP [Y9V] is 4.3 kcal/mol; for KKKYVIKVYMEDTGKEVEIEAESKEEALEAAKRLAEELGLKIKKVEIYP [F10M] it is 3.73 kcal/mol. As to KKKYVIKVYCEDTGKEVEIEAESKEEALEAAKRLAEELGLKIKKVEIYP [F10C], the “folding stability dG” value came to 3.67 kcal/mol. The figure for KKKYVIKVYWEDTGKEVEIEAESKEEALEAAKRLAEELGLKIKKVEIYP [F10W] is 4.44 kcal/mol. The figure for KKKYVIKVYYEDTGKEVEIEAESKEEALEAAKRLAEELGLKIKKVEIYP [F10Y] is 3.94 kcal/mol; for KKKYVIKVYAEDTGKEVEIEAESKEEALEAAKRLAEELGLKIKKVEIYP [F10A] it is 2.98 kcal/mol; for KKKYVIKVYTEDTGKEVEIEAESKEEALEAAKRLAEELGLKIKKVEIYP [F10T] it is 3.32 kcal/mol. Turning to KKKYVIKVYIEDTGKEVEIEAESKEEALEAAKRLAEELGLKIKKVEIYP [F10I], the “folding stability dG” value amounted to 3.28 kcal/mol. The figure for KKKYVIKVYVEDTGKEVEIEAESKEEALEAAKRLAEELGLKIKKVEIYP [F10V] is 2.98 kcal/mol; for KKKYVIKVYLEDTGKEVEIEAESKEEALEAAKRLAEELGLKIKKVEIYP [F10L] it is 3.94 kcal/mol; for KKKYVIKVYGEDTGKEVEIEAESKEEALEAAKRLAEELGLKIKKVEIYP [F10G] it is 3.16 kcal/mol. For the variant KKKYVIKVYHEDTGKEVEIEAESKEEALEAAKRLAEELGLKIKKVEIYP [F10H], the “folding stability dG” value was 2.56 kcal/mol. For KKKYVIKVYDEDTGKEVEIEAESKEEALEAAKRLAEELGLKIKKVEIYP [F10D] the value was 2.86 kcal/mol; for KKKYVIKVYSEDTGKEVEIEAESKEEALEAAKRLAEELGLKIKKVEIYP [F10S], 3.13 kcal/mol; for KKKYVIKVYEEDTGKEVEIEAESKEEALEAAKRLAEELGLKIKKVEIYP [F10E], 2.52 kcal/mol. The figure for KKKYVIKVYPEDTGKEVEIEAESKEEALEAAKRLAEELGLKIKKVEIYP [F10P] is 2.07 kcal/mol.

Take KKKYVIKVYQEDTGKEVEIEAESKEEALEAAKRLAEELGLKIKKVEIYP [F10Q]: the “folding stability dG” value turned out to be 2.23 kcal/mol. The figure for KKKYVIKVYKEDTGKEVEIEAESKEEALEAAKRLAEELGLKIKKVEIYP [F10K] is 1.65 kcal/mol; for KKKYVIKVYREDTGKEVEIEAESKEEALEAAKRLAEELGLKIKKVEIYP [F10R] it is 1.98 kcal/mol; for KKKYVIKVYNEDTGKEVEIEAESKEEALEAAKRLAEELGLKIKKVEIYP [F10N] it is 2.58 kcal/mol. The figure for KKKYVIKQYFEDTGKEVEIEAESKEEALEAAKRLAEELGLKIKKVEIYP [V8Q] is 1.52 kcal/mol; for KKKYVIKWYFEDTGKEVEIEAESKEEALEAAKRLAEELGLKIKKVEIYP [V8W] it is 4.03 kcal/mol. As to KKKYVIKNYFEDTGKEVEIEAESKEEALEAAKRLAEELGLKIKKVEIYP [V8N], the “folding stability dG” value was found to be 1.36 kcal/mol. Take KKKYVIKYYFEDTGKEVEIEAESKEEALEAAKRLAEELGLKIKKVEIYP [V8Y]: the “folding stability dG” value is 4.22 kcal/mol. The figure for KKKYVIKPYFEDTGKEVEIEAESKEEALEAAKRLAEELGLKIKKVEIYP [V8P] is 0.881 kcal/mol; for KKKYVIKRYFEDTGKEVEIEAESKEEALEAAKRLAEELGLKIKKVEIYP [V8R] it is 0.173 kcal/mol. KKKYVIKSYFEDTGKEVEIEAESKEEALEAAKRLAEELGLKIKKVEIYP [V8S]: the “folding stability dG” value was determined as 1.87 kcal/mol. The figure for KKKYVIKTYFEDTGKEVEIEAESKEEALEAAKRLAEELGLKIKKVEIYP [V8T] is 2.91 kcal/mol.
